Here are results for 13 molecules from paper PMC6908968 (Cell, 2019).

Test [1] has as its target T1, thermolysin-cleaved EBOV GP on Jurkat-GP cells (cleaved GP) (Zaire ebolavirus, Makona (GP1 core …, strain)).
T1 chain 1: not shown
T1 chain 2: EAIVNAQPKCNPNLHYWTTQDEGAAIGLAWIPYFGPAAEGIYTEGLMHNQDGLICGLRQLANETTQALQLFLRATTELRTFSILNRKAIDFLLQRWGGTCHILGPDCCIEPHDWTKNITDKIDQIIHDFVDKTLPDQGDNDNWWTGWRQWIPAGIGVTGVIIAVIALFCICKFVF

Test [2] deals with T2, EBOV GP ectodomain residues 1-636 (GPec) (Zaire ebolavirus, strain  …, UniProt Q05320).
In test [3] the target is EBOV glycoprotein (GP), Makona strain, full length mature, on Jurkat-GP cells (native GP) (Zaire ebolavirus, Makona (stand-in: …, UniProt P87666, strain)).
Test [4] addresses T2, EBOV GP ectodomain residues 1-636 (GPec). As to the kind of experiment: ELISA. The following applies: both partners purified. In general terms: ELISA stands for enzyme-linked immunosorbent assay.

Read-outs that look alike come from different tables or passages of the source.

B1: 9.1.c1500 (antibody, V domains shown)
VH: QLQLQESGPGLVKPSETLSLTCTVSGGSISSSSYFWGWIRQPPGKGLELIGIIYYTGNTNYNPSLKSRVTISVDTSKNQFSLKLSSVTAADTAVYYCARSLEAHLLYYYAMDVWGQGTTVTVFS
VL: QSALTQPRSVSGSPGQSVTISCTGTSSDVGGYNYVSWYQQHPGKAPKLMIYDVSQRPSGVPDRFSGSKSGNTASLTISGLQAADEADYYCCSYAGSSWVFGGGTKLTVL
With B1, the binding result in test [1] and in test [2] was “binds” throughout.

B2: 5.6.c4515 (antibody, V domains shown)
VH: QVQLVESGGDVVQPGRSLRLSCAASGFIFSTYGMHWVRQTPGKGLEWVAVLYYDGRNGYYADSVKGRFTISRDNSKNTLYLQMNSLRAEDTAVYYCARDGCSSTDCLLYYYAMDVWGQGTTVTVSS
VL: QSALTQPPSASGSPGQSVTISCTGTSSDVGAYNYVSWYQQHPGKGPKLMIYEVNQRPSGVPGRFSGSKSGNTASLTVSGLQTEDEADYFCSSYAGSNTVVFGGGTKLTVL
With B2, the binding result in test [1] and in test [2] was “binds” each time.

B3: 9.1.c2296 (antibody, V domains shown)
VH: QVQLVESGGGVVHPGRSLRLSCAASGFTFSTYGMHWVRQAPGKGLEWVAVISYDGTNKYYADSVKGRFTTSRDNSKNTLYLQMNSLRAEDTAVYYCAKGEAYYDILTGNIDMWGQGTMVTVSS
VL: DIQMTQSPSTLSASVGDRVTITCRASQSISYWLAWYQQKPGKAPKVLIYDVSSLESGVPSRFSGSGSETEFTLTISSLQPDDFATYYCQQYHSYPLTFGGGTKVEIK
With B3, the binding result in test [1] and in test [2] was “binds” throughout.

B4: 9.1.c1482 (antibody, V domains shown)
VH: QLQLQESGPGLVKPSETLSLTCTVSGGSITSGSNYWGWIRQSPGKGLEWIGSIYYSGSTYYNPSLKSRVTTSVDTSKNQFSLRMSSVTAADTALYYCVRHLSTELLFGCFDPWGQGTLVTVSS
VL: DIQMTQSPSTLSASVGDRVTITCRASQSITGWLAWYQQKPGKAPKLLIYDASSLESGVPSRFSGSGSGTEFTLTISSLQPDDFATYYCLQYHSYSSFGQGTKLEIK
Take B4: the binding result in test [1] and in test [2] was “binds” in each case.

B5: 5.6.c3105 (antibody, V domains shown)
VH: EEQLVESGGDLVQPGGSLRLSCAASGFTFRSYDMYWVRQVTGKGLEWVSVIGAGGDTYYSDAVKGRFTISRENAKNSLYLQMNNLRAGDTAVYYCARSFGFLYGFDVWGHGTTVTVSS
VL: ENVLTQSPGTLSLSPGERATLSCRASQSISSKYFAWYQHKPGQAPRVLIYAASSRATGVPDRFSGSGSGTDFTLTISRLEPEDFAVYYCQQYDSSPITFGQGTRLEIK
On to B5, for which the binding result in test [3], in test [1] and in test [2] was “binds” each time.

B6: mAb 2.1.6C11 (antibody, V domains shown)
VH: GAEVKKPGASVKVSCKASGYTFTTYDINWVRQATGQGLEWMGWMNPNSGNTGYAQKFQGRVTMTRNTSISTAYMELRSLRSEDTAVYYCAPGVTFWGQGTLVTVSS
VL: PSSLSAPVGDRVTITCRASQGISNSLAWFQQKPGKAPKSLIYAASSLQSGVPSNFSGSGSGTDFTLTISSLQPEDFATYYCQQYNSYPWTFGQGTKVEIK
For B6, the binding result in test [4] was “binds”.

B7: 9.1.c1617 (antibody, V domains shown)
VH: QVQFVESGGGLVKPGGSLRLSCTTSGFTFSDYYMSWIRQAPGKGLEWVSYISRSGNIIYYPDSVKGRFTISRDNAKNSLYLQMNSLRVEDTAVYYCAGGVQRGYNYYYYGMYVWGQGITVTVSS
VL: DIVMTQSPLSLPVTPGEPASISCRSSQSLLHSNGYNYLDWYLQRPGQSPQLLIYLGSNRASGVPDRFSGSGSGTDFTLKISRVEAEDFGFYYCMQALQTPYTFGQGTKLEIR
In the case of B7, the binding result in test [1] and in test [2] was “binds” in each case.

B8: 9.1.c1533 (antibody, V domains shown)
VH: QVQLQESGPGLVKPSGTLSLTCTVSGGSISSNNWWSWVRQSPGKGLEWIGEIYHSGSTNYNPSLKSRVTISVDKSKNQFSLKVSSVTAADTAVYYCARGDQLIYYFDYWGQGTLVTVSS
VL: QSALTQPASVSGSPGQSITISCTGSSSDVGVYDFVSWYQQHPGKAPKLMIYEVSNRPSGVSNRFSGSKSGNTASLTISGLQAEDEANYYCSSYTSSITNVVFGGGTKLTVL
With B8, the binding result in test [1] and in test [2] was “binds” in each case.

B9: 5.6.c4516 (antibody, V domains shown)
VH: EVHLVESGGGLVQRGGSLRLSCVASKFSFSFYSMGWVRQPPGKGLEWVSFISISGTTIYYEDSVKGRFTISRDDAKNSLYLQMNSLRDEDTAVYYCARIPQAAFHFDYWGQGTLVAVSS
VL: QSALTQPASVSGSPGQSITISCTGSSSDVGSYNLVSWYQQHPGKAPKLMIYEGSSRPSGVSNRFSGSKSGNTASLTISGLQAEDEADYYCCAYAGTRTWLFGGGTKVTVL
As to B9, the binding result in test [1] and in test [2] was “binds” each time.

B10: 5.6.c3363 (antibody, V domains shown)
VH: EVKLVESGGDLIQPGGSLRLSCAGSGFTFSNYAMSWVRQAPGKGLEWVSGLSGSGRNTYYADSVKGRFTISRDNSQNTLFLQMNSLRAEDTAIYYCATASVWSGYVLQYWGQGALVIVSS
VL: DIQMTQSPSSLSASVGDRVTITCRASQNINDWLAWYQQKPGKAPKLLIFRASSLESGVPSRFSGSGFGTEFTLTISSLQPDDFASYYCQQYKSYPMYTFGQGTKLDIN
For B10, the binding result in test [3], in test [1] and in test [2] was “binds” each time.

B11: 9.1.c1853 (antibody, V domains shown)
VH: EVQLVQSGAEVKKPGESLRISCKGSGNSFSSYWISWVRQKPGKGLEWMGRIDPSDSYTSYSPSFQGHVTISADKTNSTAYLQWSGLKASDTAVYYCAREVAGEEIFYYYYMDVWGKGTPVTVSS
VL: EIVLTQSPVTLSLSPGEKATLSCRASQSVISSYLVWYQQKPGQAPRLLIYGASNRASGIPDRFSGSGSGTDFTLTISRLEPEDFAVYYCQLYGSLPRWTFGQGTEVQIK
For the molecule B11, the binding result in test [1] and in test [2] was “binds” each time.

B12: 9.1.c1965 (antibody, V domains shown)
VH: QVQLVQSGAEVKKPGASVKVSCKASGYTFTRYGINWVRQAPGQGLEWMGWISAYNGHTSYAQKLQGRVTMTTDTSTSTAYMELSSLRSDDTAVYYCARDAGMVRPYYFDYWGQGTLVTVSS
VL: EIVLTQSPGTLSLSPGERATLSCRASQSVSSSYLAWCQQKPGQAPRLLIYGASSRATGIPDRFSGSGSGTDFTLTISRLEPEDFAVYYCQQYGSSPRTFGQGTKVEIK
Consider B12, for which the binding result in test [1] and in test [2] was “binds” each time.

B13: mAb 5.1.10B3 (antibody, V domains shown)
VH: EVQLVESGGGLVQPGGSLRLSCAASGFTFRSYDMHWVRQATGKGLEWVSAIGTAGDTYYPGSVKGRFTISRENAKNSLYLQMNSLRAEDTAVYYCARVRFGDTAVDYWGQGTLVTVSS
VL: DIQMTQSPSSLSASVGDRVTITCRASQSISSFLNWHQQKPGKAPKLLIYAASSLQSGVPSRFSGSGSGTDFTLTISSLQPEDFAIYYCQQSYISPFTFGPGTKVDIK
Take B13: the binding result in test [4] is “binds”.
